# Results taken from IntAct's records for PubMed 19129478.
# B1: Neutrophil cytosol factor 1 (Homo sapiens), P14598 (parent)
# chain: MGDTFIRHIALLGFEKRFVPSQHYVYMFLVKWQDLSEKVVYRRFTEIYEFHKTLKEMFPIEAGAINPENRIIPHLPAPKWFDGQRAAENRQGTLTEYCSTLMSLPTKISRCPHLLDFFKVRPDDLKLPTDNQTKKPETYLMPKDGKSTATDITGPIILQTYRAIANYEKTSGSEMALSTGDVVEVVEKSESGWWFCQMKAKRGWIPASFLEPLDSPDETEDPEPNYAGEPYVAIKAYTAVEGDEVSLLEGEAVEVIHKLLDGWWVIRKDDVTGYFPSMYLQKSGQDVSQAQRQIKRGAPPRRSSIRNAHSIHQRSRKRLSQDAYRRNSVRFLQQRRRQARPGPQSPGSPLEEERQTQRSKPQPAVPPRPSADLILNRCSESTKRKLASAV
# Variants of: B1
# Conditions: with ncf2_human NCF2, P19878
# Sequence of ncf2_human NCF2, P19878 (P19878 whole entry): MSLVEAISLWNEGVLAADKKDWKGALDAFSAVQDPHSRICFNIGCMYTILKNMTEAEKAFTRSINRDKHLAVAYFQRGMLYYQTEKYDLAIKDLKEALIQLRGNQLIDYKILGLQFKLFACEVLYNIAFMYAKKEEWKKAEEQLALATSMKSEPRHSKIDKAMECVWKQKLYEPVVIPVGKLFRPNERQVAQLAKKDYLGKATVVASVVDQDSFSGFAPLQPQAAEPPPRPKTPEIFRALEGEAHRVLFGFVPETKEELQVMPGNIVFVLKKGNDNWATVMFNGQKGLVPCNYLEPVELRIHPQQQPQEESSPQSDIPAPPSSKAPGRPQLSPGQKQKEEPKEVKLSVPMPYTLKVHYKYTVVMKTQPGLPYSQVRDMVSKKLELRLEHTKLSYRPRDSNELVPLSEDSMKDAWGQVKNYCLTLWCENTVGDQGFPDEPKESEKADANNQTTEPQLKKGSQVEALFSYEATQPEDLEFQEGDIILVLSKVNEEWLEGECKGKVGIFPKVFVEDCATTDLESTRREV
row,Variant,effect of a mutation on the interaction
1,P366A,disrupting interaction
2,R368A,decreasing interaction
3,K383E,decreasing interaction
4,K385E,decreasing interaction
5,P363A,decreasing interaction
